# Ends that are not written are not given here.
# T1: human neutrophil elastase (human, UniProt P08246 30-247)
# T1 construct: also called HNE; immobilized HNE
# T1 sequence (looked up): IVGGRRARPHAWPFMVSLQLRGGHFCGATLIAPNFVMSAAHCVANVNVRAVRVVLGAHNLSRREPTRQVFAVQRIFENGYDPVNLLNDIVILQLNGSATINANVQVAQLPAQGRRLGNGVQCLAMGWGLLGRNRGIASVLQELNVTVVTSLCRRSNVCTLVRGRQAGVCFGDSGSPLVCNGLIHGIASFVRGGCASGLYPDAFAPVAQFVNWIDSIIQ
# B1: MA-ITI phage (other, human, UniProt P02760 227-281, looked up)
# chain: KEDSCQLGYSAGPCMGMTSRYFYNGTSMACETFQYGGCMGNGNNFVTEKECLQTC
# notes: residue range counts on the mature ITI light chain (UTI), not on the AMBP precursor entry; also called MA-ITI 2; MA-ITT; not shown: M13 gene III protein, mature
# B2: MA-ITI-E7 phage (designed binder)
# chain: KEDSCQLGYSAGPCVAMFPRYFYNGTSMACETFQYGGCMGNGNNFVTEKECLQTCR
# modifications: not fully specified; cysteine pairing not given here
# notes: two phage strains (1 and 2) of the same construct were tested; also called MA-ITI-E7 1; MA-ITI-E7 2; not shown: The join to the display carrier
# What was measured:
# [1] = molecular target: M13mp18 phage; assay: titer of M13MP18 after normal rabbit IgG
# [2] = molecular target: M13mp18 phage; assay: titer of M13MP18 after normal rabbit IgG and protein A beads
# [3] = molecular target: agarose-immobilized anhydro-trypsin (UniProt P00760); assay: titer after 4 h with 5 ul immobilized anhydro-trypsin
# Sequence of agarose-immobilized anhydro-trypsin (P00760 24-246): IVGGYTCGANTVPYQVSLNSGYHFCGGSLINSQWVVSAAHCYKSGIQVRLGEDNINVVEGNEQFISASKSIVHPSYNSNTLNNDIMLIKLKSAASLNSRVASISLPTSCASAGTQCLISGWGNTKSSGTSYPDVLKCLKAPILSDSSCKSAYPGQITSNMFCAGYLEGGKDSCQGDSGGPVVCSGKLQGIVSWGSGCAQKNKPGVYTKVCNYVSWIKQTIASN
# [4] = molecular target: agarose-immobilized streptavidin (UniProt P22629); assay: titer after 2 h with 5 ul immobilized streptavidin
# Sequence of agarose-immobilized streptavidin (P22629 37-163 limits assumed): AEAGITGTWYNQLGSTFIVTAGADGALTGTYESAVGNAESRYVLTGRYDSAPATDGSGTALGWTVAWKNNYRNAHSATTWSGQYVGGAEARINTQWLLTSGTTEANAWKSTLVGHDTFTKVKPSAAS
# [5] = molecular target: agarose-immobilized anhydro-trypsin (UniProt P00760); assay: titer after 4 h with 2 ul immobilized anhydro-trypsin
# [6] = molecular target: agarose-immobilized anhydro-trypsin (UniProt P00760); assay: titer after 1 h with 10 ul immobilized anhydro-trypsin
# [7] = molecular target: agarose-immobilized streptavidin (UniProt P22629); assay: dot blot of phage eluted at pH 2.2 from 5 ul immobilized streptavidin
# [8] = molecular target: agarose-immobilized anhydro-trypsin (UniProt P00760); assay: titer after 2 h with 5 ul immobilized anhydro-trypsin
# [9] = molecular target: agarose-immobilized anhydro-trypsin (UniProt P00760); assay: titer after 1 h with 2 ul immobilized anhydro-trypsin
# [10] = molecular target: trypsin (UniProt P00760); assay: pH 2.2 eluate from immobilized active trypsin, bound in CBS pH 6.5
# Sequence of trypsin (P00760 24-246): as the sequence (P00760 24-246) above
# [11] = molecular target: agarose-immobilized streptavidin (UniProt P22629); assay: titer after 1 h with 5 ul immobilized streptavidin
# [12] = molecular target: agarose-immobilized streptavidin (UniProt P22629); assay: titer after 4 h with 5 ul immobilized streptavidin
# [13] = molecular target: agarose-immobilized anhydro-trypsin (UniProt P00760); assay: dot blot of phage eluted at pH 2.2 from 10 ul immobilized anhydro-trypsin
# [14] = molecular target: agarose-immobilized anhydro-trypsin (UniProt P00760); assay: titer after 4 h with 10 ul immobilized anhydro-trypsin
# [15] = molecular target: agarose-immobilized anhydro-trypsin (UniProt P00760); assay: titer after 1 h with 5 ul immobilized anhydro-trypsin
# [16] = molecular target: trypsin (UniProt P00760); assay: pH 2.2 eluate from immobilized active trypsin, bound in TBS pH 7.5
# [17] = molecular target: agarose-immobilized anhydro-trypsin (UniProt P00760); assay: titer after 2 h with 10 ul immobilized anhydro-trypsin
# [18] = molecular target: agarose-immobilized anhydro-trypsin (UniProt P00760); assay: dot blot of phage eluted at pH 2.2 from 2 ul immobilized anhydro-trypsin
# [19] = molecular target: agarose-immobilized anhydro-trypsin (UniProt P00760); assay: titer after 2 h with 2 ul immobilized anhydro-trypsin
# [20] = molecular target: agarose-immobilized anhydro-trypsin (UniProt P00760); assay: dot blot of phage eluted at pH 2.2 from 5 ul immobilized anhydro-trypsin
# [21] = molecular target: agarose-immobilized anhydro-trypsin (UniProt P00760); assay: pfu eluted from anhydrotrypsin beads
# [22] = molecular target: agarose-immobilized anhydro-trypsin (UniProt P00760); assay: pfu acid eluted from anhydrotrypsin beads, experiment 2
# [23] = molecular target: agarose-immobilized anhydro-trypsin (UniProt P00760); assay: pfu acid eluted from anhydrotrypsin beads, experiment 1
# [24] = molecular target: T1, human neutrophil elastase; assay: pfu acid eluted from HNE beads
# [25] = molecular target: agarose-immobilized anhydro-trypsin (UniProt P00760); assay: phage titer after incubation with anhydrotrypsin beads
# [26] = molecular target: trypsin (UniProt P00760); assay: pfu eluted from trypsin beads
# [27] = molecular target: trypsin (UniProt P00760); assay: pfu acid eluted from trypsin beads
# [28] = molecular target: human Cathepsin G (human) (UniProt P08311); assay: Cat-G beads, pH 2.0 eluate
# Sequence of human Cathepsin G (human) (P08311 21-244 limits assumed): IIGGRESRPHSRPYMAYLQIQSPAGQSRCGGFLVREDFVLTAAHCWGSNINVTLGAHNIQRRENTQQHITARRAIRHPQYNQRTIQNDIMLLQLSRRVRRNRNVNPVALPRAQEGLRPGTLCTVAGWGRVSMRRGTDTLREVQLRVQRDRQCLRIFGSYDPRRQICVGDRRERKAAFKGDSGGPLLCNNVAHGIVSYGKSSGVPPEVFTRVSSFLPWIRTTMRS
# [29] = molecular target: T1, human neutrophil elastase; assay: HNE beads, abbreviated elution, pH 2.0
# Description: (§1) To test if the changes at positions 15, 16, 18, and 19 of the ITI-DI-III fusion protein influence binding of display phage to HNE beads, abbreviated pH elution profiles were measured. […] The beads were washed and phage were eluted as described (Example III), except that only three pH elutions were performed: pH 7.0, 3.5, and 2.0.
# [30] = molecular target: human Cathepsin G (human) (UniProt P08311); assay: Cat-G beads, pH 2.5 eluate
# [31] = molecular target: human Cathepsin G (human) (UniProt P08311); assay: Cat-G beads, pH 7.0 eluate
# [32] = molecular target: human Cathepsin G (human) (UniProt P08311); assay: Cat-G beads, pH 5.5 eluate
# [33] = molecular target: T1, human neutrophil elastase; assay: HNE beads, abbreviated elution, pH 7.0
# Description: as §1
# [34] = molecular target: human Cathepsin G (human) (UniProt P08311); assay: Cat-G beads, SUM of all pH elution fractions
# [35] = molecular target: human Cathepsin G (human) (UniProt P08311); assay: Cat-G beads, pH 3.5 eluate
# [36] = molecular target: T1, human neutrophil elastase; assay: HNE beads, abbreviated elution, SUM of pH fractions
# Description: as §1
# [37] = molecular target: human Cathepsin G (human) (UniProt P08311); assay: Cat-G beads, pH 4.5 eluate
# [38] = molecular target: human Cathepsin G (human) (UniProt P08311); assay: Cat-G beads, pH 5.0 eluate
# [39] = molecular target: human Cathepsin G (human) (UniProt P08311); assay: Cat-G beads, pH 6.0 eluate
# [40] = molecular target: human Cathepsin G (human) (UniProt P08311); assay: Cat-G beads, pH 3.0 eluate
# [41] = molecular target: T1, human neutrophil elastase; assay: HNE beads, abbreviated elution, pH 3.5
# Description: as §1
# [42] = molecular target: human Cathepsin G (human) (UniProt P08311); assay: Cat-G beads, pH 4.0 eluate
# [43] = molecular target: T1, human neutrophil elastase; assay: abbreviated pH elution from HNE beads
# Description: as §1
# [44] = molecular target: T1, human neutrophil elastase; assay: extended pH elution from HNE beads
# Description: To test if phage displaying the ITI-DI-III fusion protein interact strongly with the proteases human neutrophil elastase (HNE) or cathepsin-G, aliquots of display phage were incubated with agarose-immobilized HNE or cathepsin-G beads (HNE beads or Cat-G beads, respectively). […] The procession in lowering pH during the elution was: pH 7.0, 6.0, 5.5, 5.0, 4.5, 4.0, 3.5, 3.0, 2.5, and 2.0. Following elution and neutralization, the various input, wash, and pH elution fractions were titered.
molecule,measurement,setting,value
normal rabbit IgG / normal rabbit serum (antibody),percent of input phage (pfu),[1],104%
same,percent of input phage (pfu),[2],88%
MK phage,percent residual titer,[3],96%
same,percent residual titer,[4],96%
same,percent residual titer,[5],95%
same,percent residual titer,[6],99%
same,percent of total phage recovered in elution buffer,[7],< 1%
same,percent residual titer,[8],111%
same,percent residual titer,[9],97%
same,percent of input phage,[10],0.00028%
same,total pfu recovered in elution buffer,[10],1.35e+06 pfu
same,percent residual titer,[11],106%
same,percent residual titer,[12],98%
same,percent of total phage recovered in elution buffer,[13],< 1%
same,percent residual titer,[14],106%
same,percent residual titer,[15],110%
same,percent of input phage,[16],0.00034%
same,total pfu recovered in elution buffer,[16],1.48e+06 pfu
same,percent residual titer,[17],93%
same,percent of total phage recovered in elution buffer,[18],< 1%
same,percent residual titer,[19],103%
same,percent of total phage recovered in elution buffer,[20],< 1%
M13mp18 phage,binding relative to M13MP18,[21],1 fold
same,"eluted phage, percent of input",[21],0.1%
same,binding relative to M13MP18,[22],1 fold
same,"eluted phage, percent of input",[22],0.3%
same,binding relative to M13MP18,[23],1 fold
same,"eluted phage, percent of input",[23],0.2%
same,binding relative to M13MP18,[24],1 fold
same,"eluted phage, percent of input",[24],0.0003%
same,pfu after incubation as percent of input,[25],121%
same,binding relative to M13MP18,[26],1 fold
same,"eluted phage, percent of input",[26],0.00023%
same,binding relative to M13MP18,[27],1 fold
same,"eluted phage, percent of input",[27],0.0005%
B1,fraction of input,[28],7e-07
same,total pfu in sample,[28],320000 pfu
same,fraction of input,[29],1e-06
same,fraction of input,[30],5.9e-07
same,total pfu in sample,[30],270000 pfu
same,fraction of input,[31],1.3e-05
same,total pfu in sample,[31],6.1e+06 pfu
same,fraction of input,[32],2.6e-06
same,total pfu in sample,[32],1.2e+06 pfu
same,fraction of input,[33],1e-05
same,fraction of input,[34],3e-05
same,total pfu in sample,[34],1.4e+07 pfu
same,fraction of input,[35],9.6e-07
same,total pfu in sample,[35],440000 pfu
same,fraction of input,[36],1.4e-05
same,fraction of input,[37],1.5e-06
same,total pfu in sample,[37],670000 pfu
same,fraction of input,[38],2.4e-06
same,total pfu in sample,[38],1.1e+06 pfu
same,fraction of input,[39],5e-06
same,total pfu in sample,[39],2.3e+06 pfu
same,fraction of input,[40],7.8e-07
same,total pfu in sample,[40],360000 pfu
same,fraction of input,[41],3e-06
same,fraction of input,[42],9.6e-07
same,total pfu in sample,[42],440000 pfu
B2,fold greater total fraction of input eluted than MA-ITI phage,[43],10 fold
same,fold lower total fraction of input eluted than EpiNE-7 phage,[43],40 fold
same,fraction of input,[41],8e-05
same,fold lower total fraction of input eluted than EpiNE-7 phage,[44],~40 fold

# From patent publication US20070259417A1 (published 2007)
